Test results: patent publication US20220048993A1

Target: truncated human FcRH5 (deletion of amino acids 1-744) with N-terminal gD tag (human) (UniProt Q96RD9)
Assay: cell-based or functional assay

Sequence of truncated human FcRH5 (deletion of amino acids 1-744) with N-terminal gD tag (human) (Q96RD9 745-977, stated change not applied): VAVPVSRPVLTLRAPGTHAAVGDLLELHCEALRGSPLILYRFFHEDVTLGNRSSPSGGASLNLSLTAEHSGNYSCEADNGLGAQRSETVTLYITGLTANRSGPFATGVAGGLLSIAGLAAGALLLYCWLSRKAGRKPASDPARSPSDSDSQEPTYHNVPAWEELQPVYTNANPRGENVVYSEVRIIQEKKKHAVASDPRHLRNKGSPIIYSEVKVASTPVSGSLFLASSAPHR

Substance “anti-gD/UCHT1.v9 TDB (bispecific antibody)” has a target cell killing, EC50 of 0.19 nM.
